One protein from paper PMC3326527 (Journal of molecular biology, 2005) can be followed below.

The series concerns the molecule itself. Description: crystal structure.

B1: UDP-galactopyranose mutase from Mycobacterium tuberculosis (enzyme)
chain: MQPMTARFDLFVVGSGFFGLTIAERVATQLDKRVLVLERRPHIGGNAYSEAEPQTGIEVHKYGAHLFHTSNKRVWDYVRQFTDFTDYRHRVFAMHNGQAYQFPMGLGLVSQFFGKYFTPEQARQLIAEQAAEIDTADAQNLEEKAISLIGRPLYEAFVKGYTAKQWQTDPKELPAANITRLPVRYTFDNRYFSDTYEGLPTDGYTAWLQNMAADHRIEVRLNTDWFDVRGQLRPGSPAAPVVYTGPLDRYFDYAEGRLGWRTLDFEVEVLPIGDFQGTAVMNYNDLDVPYTRIHEFRHFHPERDYPTDKTVIMREYSRFAEDDDEPYYPINTEADRALLATYRARAKSETASSKVLFGGRLGTYQYLDMHMAIASALNMYDNVLAPHLRDGVPLLQDGA
For the protein B1, the binding result is on record as “binds”.
